Experimental data from patent publication US20250075191A1, “MODIFIED BIOLUMINESCENT ENZYMES” (Light Bio, Inc., priority 2023, published 2025).

Legend:
[1] = Enzyme thermostability in cleared E. coli lysates incubated at 22° C.; assay type: biochemical; conditions: then 100 μM luciferin
Method: To assess the effect on enzyme thermostability by the amino acid substitutions, lysates of transformed E. coli were prepared by sonication and cleared by centrifugation. The cleared lysates were diluted 1:100 into Tris-buffered saline with 0.01% BSA and 0.1% n-dodecyl β-D-maltoside. 100 μl of each diluted lysate were added to a 96-well PCR plate. Samples were incubated at 22° C. and at various time points aliquots were placed on ice. When all of the samples were processed, 50 μl of each was combined with 50 μl of 100 μM luciferin in Tris-buffered saline with 0.01% BSA and 0.1% n-dodecyl β-D-maltoside. Samples were immediately placed in a GloMax®-Multi+luminometer (Promega) to measure bioluminescence.

[2] = Luciferase luminescence in E. coli lysates after luciferin addition; assay type: biochemical; conditions: 100 μM luciferin, maximal brightness
Source text: A library of amino acid substitutions was created applying mutagenesis to a gene encoding the luciferase derived from Neonothopanus nambi (SEQ ID NO: 8). pF4Ag shuttle vector (Promega) was used for gene expression in E. coli (T7 promoter-driven expression) and mammalian cells (CMV promoter-driven expression). The pF4Ag vector backbone introduces a C-terminal 3×-FLAG-HiBiT tag. Site-directed mutagenesis was used to substitute consensus amino acids at selected position in the luciferase sequence. Gene expression was performed in the E. coli strain KRX (Promega), which enables rhamnose-inducible expression of T7 RNA polymerase.
Colonies (in triplicate) were used to inoculate LB broth containing ampicillin ([…]) and cultures grown overnight in 96-well microtiter plates (20 hours, 37° C.). Cultures were diluted into fresh LB containing 0.1% rhamnose and ampicillin and grown for 3 hours at 37° C. 50 μl of the induced culture was lysed for 5 minutes at ambient temperature with a reagent consisting of 25 mM HEPES pH 7.5 and 0.3×PLB (E1941 Promega). 50 μl of lysate was combined with 50 μl luciferin (100 μM) in the lysis buffer and samples were measured for total luminescence using a GloMax®-Multi+luminometer. (Promega).

[3] = system: yeast cells (P. pastoris); assay: Stability of luciferase within yeast cells after 10 min incubation at different temperatures; assay type: cell-based; conditions: then luciferin
Method: To evaluate stability of nnLuz_WT and nnLuz_v4 within yeast cells, strains expressing nnLuz WT or nnLux_v4 were grown on plates for 24 hours, then resuspended in PBS to final OD (600 nm)=5 and 50 μl was placed in wells of a 96-well PCR plate. Different portions of the plate were incubated at different temperatures for 10 minutes using a gradient thermal cycler. The plate were then placed on ice for 5 minutes and 10 μl of 500 μM luciferin (2% DMSO, 10 mM thioglycolic acid, 0.1% DDM in DPBS) were added to each well. Then 25 μl of suspension from each well was transferred to a black 96-well plate containing 0.2 M sodium phosphate buffer with 0.5 M Na2SO4,pH=8.

| Molecule | enzyme stability relative to unmodified parental luciferase [1] | production of bioluminescence relative to parental nnLuz [2] | reduction of luminescence after incubation at 40° C. ([3]; 10 min at 40° C.) [fold] | reduction of luminescence after incubation at 45° C. ([3]; 10 min at 45° C.) [fold] |
| --- | --- | --- | --- | --- |
| T99P: nnLuz luciferase variant with single amino acid substitution T99P (protein, UniProt A0A3G9JYH7 1-267, looked up, variant T99P) Luciferase: MRINISLSSLFERLSKLSSRSIAITCGVVLASAIAFPIIRRDYQTFLEVGPSYAPQNFRGYIIVCVLSLFRQEQKGLAIYDRLPEKRRWLADLPFREGPRPSITSHIIQRQRTQLVDQEFATRELIDKVIPRVQARHTDKTFLSTSKFEFHAKAIFLLPSIPINDPLNIPSHDTVRRTKREIAHMHDYHDCTLHLALAAQDGKEVLKKGWGQRHPLAGPGVPGPPTEWTFLYAPRNEEEARVVEMIVEASIGYMTNDPAGKIVENAK | more stable | significant improvements |  |  |
| T192S: nnLuz luciferase variant with single amino acid substitution T192S (protein, listed as Neonothopanus nambi) MRINISLSSLFERLSKLSSRSIAITCGVVLASAIAFPIIRRDYQTFLEVGPSYAPQNFRGYIIVCVLSLFRQEQKGLAIYDRLPEKRRWLADLPFREGTRPSITSHIIQRQRTQLVDQEFATRELIDKVIPRVQARHTDKTFLSTSKFEFHAKAIFLLPSIPINDPLNIPSHDTVRRTKREIAHMHDYHDCSLHLALAAQDGKEVLKKGWGQRHPLAGPGVPGPPTEWTFLYAPRNEEEARVVEMIVEASIGYMTNDPAGKIVENAK | more stable | significant improvements |  |  |
| A199P: nnLuz luciferase variant with single amino acid substitution A199P (protein, listed as Neonothopanus nambi) MRINISLSSLFERLSKLSSRSIAITCGVVLASAIAFPIIRRDYQTFLEVGPSYAPQNFRGYIIVCVLSLFRQEQKGLAIYDRLPEKRRWLADLPFREGTRPSITSHIIQRQRTQLVDQEFATRELIDKVIPRVQARHTDKTFLSTSKFEFHAKAIFLLPSIPINDPLNIPSHDTVRRTKREIAHMHDYHDCTLHLALAPQDGKEVLKKGWGQRHPLAGPGVPGPPTEWTFLYAPRNEEEARVVEMIVEASIGYMTNDPAGKIVENAK | more stable | significant improvements |  |  |
| nnLuz_WT: parental luciferase derived from Neonothopanus nambi (SEQ ID NO: 1) (protein, listed as Neonothopanus nambi) MRINISLSSLFERLSKLSSRSIAITCGVVLASAIAFPIIRRDYQTFLEVGPSYAPQNFRGYIIVCVLSLFRQEQKGLAIYDRLPEKRRWLADLPFREGTRPSITSHIIQRQRTQLVDQEFATRELIDKVIPRVQARHTDKTFLSTSKFEFHAKAIFLLPSIPINDPLNIPSHDTVRRTKREIAHMHDYHDCTLHLALAAQDGKEVLKKGWGQRHPLAGPGVPGPPTEWTFLYAPRNEEEARVVEMIVEASIGYMTNDPAGKIVENAK |  |  | > 3 | 100 |
